Reference: US10406197B2, “Substances and methods for the use in prevention and/or treatment in Huntington's disease” (AFFIRIS AG, priority 2014, dated 2019)

Experiments:
[1] = system: caspase 6 cleavage of target peptide spanning caspase region 586 of Huntingtin; assay: In vitro caspase 6 cleavage inhibition assay; format: biochemical, human; conditions: affinity purified polyclonal antibodies 3 ng/μl, mAB C6-17 10 ng/μl; no protection = 100%
Method: Caspase 6 inhibition assays were performed using Maxisorb ELISA plates (Thermo; 439454) whereby 50 μl of 20 nM BSA-coupled peptide (as indicated in FIG. 18) was coated for 1 hour at RT followed by a one hour treatment with 150 μl blocking buffer (PBS, 1% BSA, 0.1% Tween 20), incubation for 1 hour at RT with affinity purified polyclonal sera (3 ng/μl) or affinity purified mABs (10 ng/μl) as indicated, respectively. After several washes with washing buffer (PBS, 0.1% BSA, 0.1% Tween 20), 5 U Caspase 6 enzyme (Enzo; BML SE170-5000) diluted in 1× Caspase 6 Buffer (BioVision; 1068-80) was added to each well and incubated for 30 min at 37° C. Quantification of the newly exposed epitope generated by caspase 6 peptide cleavage that reflected the extent of caspase accessibility was performed by ELISA as described in Example 1 using peptide p7564-induced antibodies for detection of the free C-terminal aspartic acid-containing epitope.

[2] = system: bone marrow derived primary mouse macrophages; assay: In vitro phagocytosis assay; format: cell-based; conditions: 5 ng/μl antibodies; p9305 beads for PRR13, p9304 beads for C6-17; versus isotype control mouse IgG2a
Method: Isolation and in vitro differentiation of macrophages was essentially performed as described e.g. in Zhang et al. 2008 [PMID: 19016445]. In brief, tibia- and femur-derived bone marrow cells from 8 to 12 weeks old BALB/c mice were divided onto 2-3 10 cm-cell culture dishes at a density of 20-30×10^6 cells per dish, differentiated 4 days in RPMI/10% FCS+P/S in the presence of 20 ng/ml M-CSF (RD-Systems, Cat-No: 416-ML-010), redistributed at day 5 into 24-well tissue culture plates at a density of 150.000 cells/well until day 9. 24 hrs before phagocytosis, cells were starved in 500 μl RPMI-media+10% FCS+P/S in absence of M-CSF. […] Antibody-coated fluorescent peptide-beads were subsequently added to differentiated macrophages for 1 hr at 37° C. (in a volume of 200 ul containing 0.5 ug beads/well) allowing for in vitro uptake by phagocytosis. After washing and scraping the cells in ice cold PBS, cells were washed in FACS-Buffer (1×PBS+1% BSA) and analysed for fluorescence signal by standard FACS procedure.

[3] = molecular target: T1, recombinant 610 amino acids N-terminal Huntingtin fragment (recHTT610) (Homo sapiens, UniProt P42858, DUP37-38); assay: Protein capture ELISA against recHTT610; format: binding; conditions: recHTT610 capture ELISA of preselected mAB candidates
T1 construct: the N-terminal 610 aminoacids of human Huntingtin protein extended by two C-terminal V5 tags; made in house; host or cells: HEK293 freestyle cells, transient transfection with precHTT610; NP-40 lysate captured on an anti-V5 coated plate
T1 sequence (P42858 with tags, fused parts or gaps DUP37-38): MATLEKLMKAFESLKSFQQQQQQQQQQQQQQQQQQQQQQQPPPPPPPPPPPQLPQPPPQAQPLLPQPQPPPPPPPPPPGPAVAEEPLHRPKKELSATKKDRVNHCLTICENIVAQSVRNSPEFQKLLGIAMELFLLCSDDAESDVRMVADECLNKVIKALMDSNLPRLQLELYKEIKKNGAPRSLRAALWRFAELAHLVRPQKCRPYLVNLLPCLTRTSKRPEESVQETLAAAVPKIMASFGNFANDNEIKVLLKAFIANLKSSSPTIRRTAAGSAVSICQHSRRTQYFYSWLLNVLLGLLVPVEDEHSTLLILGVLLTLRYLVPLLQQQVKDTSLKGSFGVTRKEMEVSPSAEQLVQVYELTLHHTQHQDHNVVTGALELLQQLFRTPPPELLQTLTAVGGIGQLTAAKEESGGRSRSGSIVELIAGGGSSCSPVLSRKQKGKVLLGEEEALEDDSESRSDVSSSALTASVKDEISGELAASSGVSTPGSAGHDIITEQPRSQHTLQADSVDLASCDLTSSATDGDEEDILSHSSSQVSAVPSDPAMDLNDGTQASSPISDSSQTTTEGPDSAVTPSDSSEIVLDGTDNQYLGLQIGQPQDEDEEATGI
Method: A DNA covering the coding region of the N-terminal 610 aminoacids of human Huntingtin protein extended by two C-terminal V5 tags were synthesized and cloned via XbaI and BamHI restriction sites into eukaryotic expression vector pCDH-EF1-MCS IRES Puro (SBI; CatNr. CD532A1) yielding plasmid precHTT610. Cloning procedures were performed according to standard molecular biology procedures essentially as indicated by manufacturers including restriction digestions and ligation reactions (NEB Quick ligase kit; CatNr. M2200L), bacterial transformation followed by clone selection and analysis. […] Protein concentrations were determined using Qubit (Invitrogen; CatNr.Q32866) according to the manufacturer's instructions.
Binding of antibodies to N-terminal fragment HTT610 was determined by a standard protein capture ELISA procedure using Maxisorb™ ELISA plates (Thermo; CatNr. 439454), coated with 50 μl of a 1:5000 rabbit anti V5 mAB (Sigma, CatNr. V8137), blocking with blocking buffer (PBS, 1% BSA, 0.1% Tween 20), capturing of recombinant Huntingtin from HEK cell extracts (100 ng/μl total protein) followed by incubation with several dilutions of mouse anti HTT sera (1:100; 1:300 and 1:900) or with mAB2166 as reference (diluted 1:2000; Millipore, Cat Nr. MAB2166) for 1 hour at RT. […]

[4] = molecular target: T2, recombinant Huntingtin fragment with free aspartic acid 586 at the C-terminus (HTT586) (Homo sapiens, UniProt P42858); assay: Protein ELISA with recombinant Huntingtin HTT586 versus HTT610; format: binding; conditions: protein capture ELISA, normalized to mAB 2166
T2 construct: recombinant Huntingtin fragment with free aspartic acid 586 at the C-terminus
T2 sequence (P42858 1-584): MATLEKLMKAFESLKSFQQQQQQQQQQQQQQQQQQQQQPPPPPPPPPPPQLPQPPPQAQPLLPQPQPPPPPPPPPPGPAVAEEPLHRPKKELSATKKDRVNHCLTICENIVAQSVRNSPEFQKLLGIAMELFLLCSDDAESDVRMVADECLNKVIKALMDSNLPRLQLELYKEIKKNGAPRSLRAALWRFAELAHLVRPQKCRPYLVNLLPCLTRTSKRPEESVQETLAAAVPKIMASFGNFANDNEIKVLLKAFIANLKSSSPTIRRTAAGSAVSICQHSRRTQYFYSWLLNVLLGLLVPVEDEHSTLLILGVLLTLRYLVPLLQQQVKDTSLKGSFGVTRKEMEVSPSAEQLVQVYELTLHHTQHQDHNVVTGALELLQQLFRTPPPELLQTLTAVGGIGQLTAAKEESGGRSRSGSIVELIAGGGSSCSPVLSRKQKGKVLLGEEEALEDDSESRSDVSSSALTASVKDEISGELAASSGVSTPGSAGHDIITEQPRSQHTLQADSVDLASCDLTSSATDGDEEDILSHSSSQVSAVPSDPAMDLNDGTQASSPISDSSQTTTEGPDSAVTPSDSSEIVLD
Method: Binding of antibodies to N-terminal fragment HTT610 was determined by a standard protein capture ELISA procedure using Maxisorb™ ELISA plates (Thermo; CatNr. 439454), coated with 50 μl of a 1:5000 rabbit anti V5 mAB (Sigma, CatNr. V8137), blocking with blocking buffer (PBS, 1% BSA, 0.1% Tween 20), capturing of recombinant Huntingtin from HEK cell extracts (100 ng/μl total protein) followed by incubation with several dilutions of mouse anti HTT sera (1:100; 1:300 and 1:900) or with mAB2166 as reference (diluted 1:2000; Millipore, Cat Nr. MAB2166) for 1 hour at RT. ELISA incubations, washing and detection procedures were performed according to standard procedures.
FIG. 12: mAB M1D1 specifically recognizes recombinant Huntingtin fragment with free aspartic acid 586 at the C-terminus stronger than uncleaned recHTT610. Protein ELISA (performed as in Example 1) using recombinant Huntingtin with 610 and 586 amino acids length (HTT610 and HTT586, respectively). Values indicate the ratio of the mAB M1D1 signal (OD; protein capture ELISA as explained in Example 1) to the mAB 2166 control antibody signal. Values were normalized to reference mAB 2166 recognizing an internal epitope present in both fragments as protein loading control.

[5] = system: Huntingtin-derived peptides (p6773, p7564, p6776 and caspase region 586 peptides); assay: Peptide ELISA of hybridoma supernatants and monoclonal antibodies; format: binding, human
Method: Vaccine-induced immune responses in mice were determined by ELISA using heparin as anticoagulant. ELISA plates (Nunc Maxisorb) were coated with maleimide activated BSA as carrier to which Cystein containing peptides were coupled via stable thioether bonds. For titrations, plasma dilutions were added and peptide-specific antibodies were quantified by biotinylated anti-mouse IgG (Southern Biotech, CatNr. 1034-08) as detection antibody combined with Streptavidin-POD (Roche, CatNr. 1089153) and subsequent color reaction using ABTS. EC50 values were determined using curve fitting with a 4-parameter logistic using GraphPad Prism (GraphPad Software).
For the production and isolation of monoclonal antibodies, the ClonaCell-HY Hybridoma Cloning Kit (STEMCELL technologies, CatNr. 28411) was used according to the instructions of the manufacturer. In brief, hybridoma fusions were performed with myeloma cell line SP2-0 under HAT selection and supernatants were initially screened by peptide ELISA using the immunization peptide, respectively, and an irrelevant control peptide for background determination. […] Selected colonies were picked and analyzed by DNA sequencing on an ABI3130xl Genetic Analyzer.

| % cleavage of target peptide [1] | signal to noise ratio (recHTT610-specific signal : HEK ctrl extracts) [3] | recognition of HTT586 versus recHTT610 (ratio of mAB signal to mAB 2166 control signal) [4] | p7564 to p6776 OD signal ratio ([5]; specificity against cleaved peptide p7564, preselected mABs) | Molecule | phagocytosis of peptide-coated beads (FACS) [2] | recognition of caspase region 586 peptides (OD) ([5]; mAB concentration 1 ng/μl, peptides p7564, p7562, p7552, p7541, p7567, p7568, p7605, p6777) |
| --- | --- | --- | --- | --- | --- | --- |
| reduce cleavage | best signal to noise ratio |  |  | C6-17: monoclonal antibody, mouse IgG2a, generated by hybridoma technique using peptide p7543 as immunogen; VH/VL SEQ ID No. 60/61 (antibody, antibody sequence) VH: MGWSCIMLFLLSGTAGVLSEVQLQQSGPELVKPGASVKISCKTSGYTFTEYTMHWVKQSHGKSLEWIGGINPNNGGTRYNQKFKGKATLTVDRSSSTAYMELRSLTSEDSAVYYCASLDGRDYWGQGTTLTVSSAKTTAPSVFPLA light: MVLMLLLLWVSGTCGDIVMSQSPSSLAVSAGEKVTMSCKSSQSLLNSRTRKNYLAWYQQKPGQSPKLLIYWASTRESGVPDRFTGSGSGTDFTLTISSVQAEDLAVYSCKQSYNLLTFGAGTKLELKRADAAPTVSIFPPSSEQLTSGGASVVCFLNNFYPK | increased phagocytosis of beads |  |
|  |  |  |  | PRR13: monoclonal antibody, mouse IgG2a, generated by hybridoma technique using peptide p6773 as immunogen; VH/VL SEQ ID No. 62/63 (antibody, antibody sequence) VH: MGWSWVMLFLLSGTGGVLSEVQLQQSAPELVKPGASVKMSCKASGYSFTDFYMKWVKQSHGKGLEWIGDIDPKNGDTFYNQKFKGRATLTVDKSSSTAYMQLNSLTTEDSAVYYCATYYGYTMDYWGQGTSVTVSSAKTTAPSVYPLAPVCGDTTGSSVTLGCLVKGYF light: MDFQVQIFSFLLISASVIMSRGQIVLTQSPAIMSASLGERVTMTCTASSSVTSSYLHWYQQKPGSSPKLWIYSTSNLASGVPARFSGSGSGTSYSLTISSMEAEDAATYYCHQYRRPPRTFGGGTKLEIKRADAAPTVSIFPPSSEQLTSGGASVVCFLNNFYPR | increased phagocytosis of beads |  |
|  |  | stronger | most favorable | M1D1: monoclonal antibody, mouse IgM, generated using peptide p7564 as immunogen; VH/VL SEQ ID No. 64/65 (antibody, antibody sequence) VH: MDFGLSWVFFVVFYQGVHCEVQLVESGGGLVQPKGSLKLSCAASGFTFNTYAMNWVRQAPGKGLEWVARIRSKSNNYATYYADSVKDRFTISRDDSQSMLYLQMNNLKTEDTAMYYCVRHGEYGNPWFAYWGQGTLVTVSAESQSFPNVFPL light: MKLPVRLLVLMFWIPASSSDVVMTQTPLSLPVSLGDQASISCRSSQSLVHSNGNTYLHWYLQKPGQSPKLLIYKVSNRFSGVPDRFSGSGSGTDFTLKISRVEAEDLGVYFCSQSTHVPYTFGGGTKLEIKRADAAPTVSIFPPSSEQLTSGGASVVCFLNNFYPK |  | recognizes Huntingtin peptides from the caspase 6 cleavage region of at least 7AA length containing free C-terminal Aspartic Acid |
